Data from paper PMC9274624.

Key:
Experiment in all cases: SPR
[1] = target: wild Bactrian camel ACE2 extracellular domain (residues 1-740) fused with the Fc domain of mouse IgG (wild Bactrian camel)
[2] = target: raccoon dog ACE2 extracellular domain (residues 1-740) fused with the Fc domain of mouse IgG (raccoon dog) (UniProt B4XEP4)
[3] = target: horse ACE2 extracellular domain (residues 1-740) fused with the Fc domain of mouse IgG (horse) (UniProt F6V9L3)
[4] = target: little brown bat ACE2 extracellular domain (residues 1-740) fused with the Fc domain of mouse IgG (little brown bat) (UniProt G1PXH7)
[5] = target: fox ACE2 extracellular domain (residues 1-740) fused with the Fc domain of mouse IgG (fox)
[6] = target: monkey ACE2 extracellular domain (residues 1-740) fused with the Fc domain of mouse IgG (monkey) (UniProt F7AH40)
[7] = target: big-eared horseshoe bat ACE2 extracellular domain (residues 1-740) fused with the Fc domain of mouse IgG (big-eared horseshoe bat)
[8] = target: mink ACE2 extracellular domain (residues 1-740) fused with the Fc domain of mouse IgG (mink)
[9] = target: pig ACE2 extracellular domain (residues 1-740) fused with the Fc domain of mouse IgG (pig) (UniProt K7GLM4)
[10] = target: fulvous fruit bat ACE2 extracellular domain (residues 1-740) fused with the Fc domain of mouse IgG (fulvous fruit bat)
[11] = target: bovine ACE2 extracellular domain (residues 1-740) fused with the Fc domain of mouse IgG (bovine) (UniProt Q58DD0)
[12] = target: goat ACE2 extracellular domain (residues 1-740) fused with the Fc domain of mouse IgG (goat)
[13] = target: dog ACE2 extracellular domain (residues 1-740) fused with the Fc domain of mouse IgG (dog)
[14] = target: alpaca ACE2 extracellular domain (residues 1-740) fused with the Fc domain of mouse IgG (alpaca)
[15] = target: rabbit ACE2 extracellular domain (residues 1-740) fused with the Fc domain of mouse IgG (rabbit) (UniProt G1TEF4)
[16] = target: sheep ACE2 extracellular domain (residues 1-740) fused with the Fc domain of mouse IgG (sheep)
[17] = target: cat ACE2 extracellular domain (residues 1-740) fused with the Fc domain of mouse IgG (cat) (UniProt Q56H28)

## SARS-CoV-2 prototype RBD (residues 319-541) (from UniProt P0DTC2 319-541) (domain or fragment)
[1]
  Kd: 104 nM
[2]
  Kd: 80 nM
[3]
  Kd: 221 nM
[4]
  Kd: 130 nM
[5]
  Kd: 56.2 nM
[6]
  Kd: 22 nM
[7]
  Kd: 677 nM
[8]
  Kd: 305 nM
[9]
  Kd: 139 nM
[10]
  Kd: 157 nM
[11]
  Kd: 181 nM
[12]
  Kd: 214 nM
[13]
  Kd: 101 nM
[14]
  Kd: 11800 nM
[15]
  Kd: 48.1 nM
[16]
  Kd: 174 nM
[17]
  Kd: 99 nM
